Numbering of substitutions follows the chain as printed.

Here are results for 16 molecules from patent US20260144882A1 (BIO THERA SOLUTIONS, published 2026).

B1: antibody 1G12 (antibody, human IgG1, kappa, V domains shown)
VH: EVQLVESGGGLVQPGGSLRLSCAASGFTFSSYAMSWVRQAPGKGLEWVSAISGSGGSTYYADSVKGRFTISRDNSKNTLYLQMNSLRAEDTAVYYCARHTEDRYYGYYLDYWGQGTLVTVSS
VL: DIQMTQSPSSLSASVGDRVTITCRASQGISSYLAWYQQKPGKAPKLLIYAASSLQSGVPSRFSGSGSGTDFTLTISSLQPEDFATYYCQQHYTTPPTFGQGTKVEIKR
B2: antibody 1F3-1G11 (antibody, human IgG1, kappa, V domains shown)
VH: EVQLVESGGGLVQPGGSLRLSCAASGYSFTGYGMSWVRQAPGKGLEWVSGISPSGGTIGYADSVKGRFTISRDNSKNTLYLQMNSLRAEDTAVYYCARAELLAFDVYTASDYWGQGTLVTVSS
VL: B1 VL
B3: antibody 1F3-2E8 (antibody, human IgG1, kappa, V domains shown)
VH: B2 VH with T30S, G31D, G50W, G55K, T57S, I58A, G59S
VL: B1 VL
B4: antibody 1F3-1E1 (antibody, human IgG1, kappa, V domains shown)
VH: B2 VH with Y27F, T30D, G31D, G33A, G50I, S52Y, S54T, G56S, I58N, G59Y
VL: B1 VL
B5: antibody 1F3-2B1 (antibody, human IgG1, kappa, V domains shown)
VH: B2 VH with S28N, T30D, G31N, G33A, S52K, S54D, G55S, G56A, I58T, G59Y
VL: B1 VL
B6: antibody 1F3-1B1 (antibody, human IgG1, kappa, V domains shown)
VH: B2 VH with Y27F, S28T, T30G, G31T, S52K, S54G, G55D, G56S, I58T, G59Y
VL: B1 VL
B7: antibody 1F3-2F3 (antibody, human IgG1, kappa, V domains shown)
VH: EVQLVESGGGLVQPGGSLRLSCAASGFNFSDYGMSWVRQAPGKGLEWVSRIDWDGGNTRYADSVKGRFTISRDNSKNTLYLQMNSLRAEDTAVYYCARAELLAFDVYTASDYWGQGTLVTVSS
VL: B1 VL
B8: antibody 10F4-2C12 (antibody, human IgG1, kappa, V domains shown)
VH: EVQLVESGGGLVQPGGSLRLSCAASGYNFGDYSMSWVRQAPGKGLEWVSVIDTTSAYTRYADSVKGRFTISRDNSKNTLYLQMNSLRAEDTAVYYCAREYSDVVDYVSVRTPLDYWGQGTLVTVSS
VL: B1 VL
B9: antibody 10F4-1A1 (antibody, human IgG1, kappa, V domains shown)
VH: EVQLVESGGGLVQPGGSLRLSCAASGFSFDNYDMSWVRQAPGKGLEWVSSIKPGSAYKFYADSVKGRFTISRDNSKNTLYLQMNSLRAEDTAVYYCAREYSDVVDYVSVRTPLDYWGQGTLVTVSS
VL: B1 VL
B10: antibody 10F4-2C6 (antibody, human IgG1, kappa, V domains shown)
VH: EVQLVESGGGLVQPGGSLRLSCAASGFNFGGFDMSWVRQAPGKGLEWVSGIKQYKGYTSYADSVKGRFTISRDNSKNTLYLQMNSLRAEDTAVYYCAREYSDVVDYVSVRTPLDYWGQGTLVTVSS
VL: B1 VL
B11: antibody 10F4-2F11 (antibody, human IgG1, kappa, V domains shown)
VH: B10 VH with F27Y, G30T, G31S, F32Y, Q53T, Y54G, K55G, Y57S, T58A, S59R
VL: B1 VL
B12: antibody 10F4-1H11 (antibody, human IgG1, kappa, V domains shown)
VH: EVQLVESGGGLVQPGGSLRLSCAASGYTFTGFWMSWVRQAPGKGLEWVSSISPDSGTKHYADSVKGRFTISRDNSKNTLYLQMNSLRAEDTAVYYCAREYSDVVDYVSVRTPLDYWGQGTLVTVSS
VL: B1 VL
B13: antibody 10F4-1H6 (antibody, human IgG1, kappa, V domains shown)
VH: B10 VH with G30Y, G31D, F32Y, Q53T, Y54H, K55S, Y57G, T58N, S59G
VL: B1 VL
B14: antibody 10F4-1 (antibody, human IgG1, kappa, V domains shown)
VH: B9 VH with F27D, D30T, D33W, S50G, K52S, P53Q, S55G, A56S, K58A, F59Y
VL: B1 VL
B15: antibody 10F4-5 (antibody, human IgG1, kappa, V domains shown)
VH: B9 VH with S28I, N31G, S50V, P53D, G54H, S55G, A56G
VL: B1 VL
B16: antibody 10F4-3 (antibody, human IgG1, kappa, V domains shown)
VH: B8 VH with Y27F, N28S, Y32F, S33A, T53G, T54H, S55T, T58N, R59S
VL: B1 VL

The first test deals with T1, human Nectin-4 extracellular antigen hNectin-4-His (human, UniProt Q96NY8 32-349).
T1 construct: C-terminal 8xHis tag included
T1 sequence: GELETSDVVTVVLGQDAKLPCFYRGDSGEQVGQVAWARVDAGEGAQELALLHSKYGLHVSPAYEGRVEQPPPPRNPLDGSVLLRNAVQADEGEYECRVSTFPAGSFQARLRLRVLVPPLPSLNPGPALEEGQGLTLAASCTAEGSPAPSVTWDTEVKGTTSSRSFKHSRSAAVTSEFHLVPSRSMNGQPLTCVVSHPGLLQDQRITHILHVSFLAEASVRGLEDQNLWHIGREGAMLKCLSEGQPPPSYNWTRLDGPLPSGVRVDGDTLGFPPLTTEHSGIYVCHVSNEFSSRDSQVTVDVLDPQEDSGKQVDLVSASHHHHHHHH
As to the kind of experiment: ELISA, coated hNectin-4-His. The text has this: (§1) The binding activity of the antibodies was detected by ELISA.
The molecule B1 displayed an EC50 of 0.073 µg/mL.

The target in another test is T1, human Nectin-4 extracellular antigen …. Put plainly: ELISA, coated hNectin-4-His. This is another data set of the same source.
Description: as §1
As to B2, the response was half-maximal at 0.007 µg/mL (EC50).

As for B3, the response was half-maximal at 0.009 µg/mL (EC50).

In turn, B4 gave an EC50 of 0.017 µg/mL.

Turning to B5, the EC50 came out at 0.014 µg/mL.

As for B6, the EC50 was 0.016 µg/mL.

In the case of B7, the response was half-maximal at 0.011 µg/mL (EC50).

The next test shares this target. Put plainly: ELISA, coated hNectin-4-His. The source holds these as a separate data set.
Description: as §1
Molecule B8 yielded an EC50 of 0.06 µg/mL.

As to B9, the EC50 came out at 0.051 µg/mL.

B10 showed an EC50 of 0.09 µg/mL.

On to B11, for which it took 0.078 µg/mL to reach a half-maximal effect (EC50).

Regarding B12, a half-maximal response (EC50) required 0.059 µg/mL.

The molecule B13 displayed an EC50 of 0.063 µg/mL.

For the next test the target is unchanged. Put plainly: SPR, antibody on Protein A chip, 1:1 fit. The text has this:
(§2) In this study, the affinity of the antibodies for the human Nectin-4 extracellular antigen was detected by surface plasmon resonance (SPR) technique (BIAcore: GE Healthcare, T200).
On to B8, for which binding was characterised by a dissociation constant (Kd) of 0.533 nM, the off-rate (koff) was found to be 0.000304 s⁻¹ and the kon was determined as 570000 M⁻¹ s⁻¹.

In turn, B2 returned a Kd of 0.815 nM, a koff of 0.00115 s⁻¹ and a kon of 1.41e+06 M⁻¹ s⁻¹.

Regarding B9, the Kd was 0.432 nM, the koff came to 0.000186 s⁻¹ and the kon was found to be 430000 M⁻¹ s⁻¹.

B10: the Kd was 0.285 nM, the koff turned out to be 8.36e-05 s⁻¹ and the kon stood at 294000 M⁻¹ s⁻¹.

Molecule B11 displayed a Kd of 0.396 nM, a koff of 0.000161 s⁻¹ and a kon of 406000 M⁻¹ s⁻¹.

With B14, binding was put at a Kd of 0.545 nM, the koff stood at 0.000226 s⁻¹ and the kon amounted to 415000 M⁻¹ s⁻¹.

B15: the Kd amounted to 0.399 nM, the off-rate (koff) stood at 0.000137 s⁻¹ and the on-rate constant (kon) was 343000 M⁻¹ s⁻¹.

On to B12, for which the Kd was found to be 0.605 nM, the koff was 0.000212 s⁻¹ and the kon turned out to be 350000 M⁻¹ s⁻¹.

B16: the Kd amounted to 0.352 nM, the dissociation rate constant (koff) stood at 0.000122 s⁻¹ and the kon worked out at 346000 M⁻¹ s⁻¹.

B3 came in with a Kd of 0.872 nM, a koff of 0.00102 s⁻¹ and a kon of 1.17e+06 M⁻¹ s⁻¹.

B4 displayed a Kd of 0.141 nM, a koff of 0.000212 s⁻¹ and a kon of 1.51e+06 M⁻¹ s⁻¹.

Regarding B5, the equilibrium dissociation constant (Kd) was 0.241 nM, the koff turned out to be 0.000317 s⁻¹ and the kon came out at 1.32e+06 M⁻¹ s⁻¹.

B6 gave a Kd of 0.17 nM, a koff of 0.000204 s⁻¹ and a kon of 1.2e+06 M⁻¹ s⁻¹.

B7 yielded a Kd of 0.37 nM, a koff of 0.000519 s⁻¹ and a kon of 1.4e+06 M⁻¹ s⁻¹.

B13 had a Kd of 0.505 nM, a koff of 0.000151 s⁻¹ and a kon of 299000 M⁻¹ s⁻¹.

The target is the same in the next test. Put plainly: SPR, antibody on Protein A chip, hNectin-4-His analyte, 1:1 fit.
Description: as §2
In the case of B1, the Kd came to 8.61 nM, the koff turned out to be 0.00464 s⁻¹ and the kon was determined as 539000 M⁻¹ s⁻¹.

For another test, the target named is T2, human Nectin-4, full length on cells (human, UniProt Q96NY8 32-510).
T2 construct: whole, on cells; T-47D cells positive for Nectin-4 expression; also called Nectin-4 on T-47D cells; CHO-Nectin-4
T2 sequence (looked up): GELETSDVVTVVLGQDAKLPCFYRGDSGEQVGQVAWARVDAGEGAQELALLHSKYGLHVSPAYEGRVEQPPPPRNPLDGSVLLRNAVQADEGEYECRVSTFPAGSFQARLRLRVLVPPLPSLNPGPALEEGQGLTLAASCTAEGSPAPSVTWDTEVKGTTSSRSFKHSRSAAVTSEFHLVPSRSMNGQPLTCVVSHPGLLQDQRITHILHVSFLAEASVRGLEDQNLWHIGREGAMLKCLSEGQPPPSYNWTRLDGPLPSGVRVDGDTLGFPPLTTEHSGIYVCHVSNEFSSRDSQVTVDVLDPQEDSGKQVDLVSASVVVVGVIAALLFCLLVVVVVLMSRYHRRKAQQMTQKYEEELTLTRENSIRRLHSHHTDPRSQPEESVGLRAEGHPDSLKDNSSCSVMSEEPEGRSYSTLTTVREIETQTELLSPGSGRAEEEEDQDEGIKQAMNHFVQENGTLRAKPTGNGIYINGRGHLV
Put plainly: flow cytometry, T-47D cells, antibody bound on ice, 0 h at 37 C. On the procedure: In this assay, the relative amount of antibodies remaining on the cell surface after co-incubation at 37° C. for a certain period of time was detected by FACS to reflect the endocytosis efficiency. The procedures are briefly described as follows: T-47D cells (human ductal breast cancer cells, derived from the Cell Bank of Chinese Academy of Sciences, Cat.No. TCHu 87); the antibodies of interest were adjusted to 10 µg/mL and co-incubated with the cells on ice for 1 h; the cells were washed 3 times with pre-cooled PBS, and then placed at 37° C. and incubated for 0 h, 2 h and 4 h; 0.2% N₃Na was added to stop the endocytosis reaction; the cells were washed with PBS thrice, followed by the addition of the PE-labeled anti-human Fc secondary antibody (Invitrogen 12-4998-82); the cells were incubated at 4° C. for 30 min; the red fluorescence signal was detected on a flow cytometer.
Turning to B2, the “MFI (mean fluorescence intensity) 0 h” value came out at 60500 MFI.

B14: the “MFI (mean fluorescence intensity) 0 h” value worked out at 58600 MFI.

B15: the “MFI (mean fluorescence intensity) 0 h” value amounted to 63400 MFI.

For B16, the “MFI (mean fluorescence intensity) 0 h” value is 61200 MFI.

B3: the “MFI (mean fluorescence intensity) 0 h” value stood at 58200 MFI.

For the molecule B4, the “MFI (mean fluorescence intensity) 0 h” value was determined as 73400 MFI.

Regarding B5, the “MFI (mean fluorescence intensity) 0 h” value was determined as 59400 MFI.

Turning to B6, the “MFI (mean fluorescence intensity) 0 h” value is 65300 MFI.

Turning to B7, the “MFI (mean fluorescence intensity) 0 h” value stood at 69000 MFI.
